In patent EP3168228A1 (Spiber Technologies AB, dated 2017):
Where a chain is given by its changes, count along the chain named. Names and notes keep the numbering of the source.

Legend:
[1] = molecular target: the molecule itself; experiment: SDS-PAGE under non-reducing conditions after thrombin cleavage, self-association
[2] = molecular target: wildtype NT (NTwt), N-terminal fragment of Euprosthenops australis major spidroin 1 (MaSp1) (Euprosthenops australis); experiment: tryptophan fluorescence ratio 339/351 nm against pH, 5 µM protein, two-state fit of the monomer-dimer equilibrium
[3] = molecular target: the molecule itself; experiment: tryptophan fluorescence ratio 339/351 nm against pH (self-association, dimerization)
[4] = molecular target: the molecule itself; experiment: gel filtration in 20 mM Tris, pH 8, self-association
[5] = molecular target: the molecule itself; experiment: gel filtration on Superdex-200, self-association

B1: Bri2113-231 protein (Bri2-BRICHOS), truncated BRICHOS domain of Bri2 (other)
chain: QTIEENIKIFEEEEVEFISVPVPEFADSDPANIVHDFNKKLTAYLDLNLDKCYVIPLNTSIVMPPRNLLELLINIKAGTYLPQSYLIHEHMVITDRIENIDHLGFFIYRLCHDKETYKL
notes: Released from the NT fusion proteins by thrombin; A 12 kDa band is said to be a truncated form, probably cleaved unspecifically by thrombin; also called Bri2 BRICHOS domain
- binding result [1]: binds

B2: wildtype NT (NTwt), N-terminal fragment of Euprosthenops australis major spidroin 1 (MaSp1) (protein)
chain: SHTTPWTNPGLAENFMNSFMQGLSSMPGFTASQLDDMSTIAQSMVQSIQSLAAQGRTSPNKLQALNMAFASSMAEIAASEEGGGSLSTKTSSIASAMSNAFLQTTGVVNQPFINEITQLVSMFAQAGMNDVSA
- pKa of dimerization [2]: 6.5 pH

B3: NTD40K/K65D, charge-reversed double mutant of the NT fragment of Euprosthenops australis MaSp1 (other)
chain: B2 chain with D36K, K61D
notes: also called charge-reversed NT mutant; mutant NT
- binding result [3]: no binding (tested: 5 µM protein, pH 5.6-8.0)

B4: NTwt-Bri2113-231 fusion protein (other)
chain: MGHHHHHHMSHTTPWTNPGLAENFMNSFMQGLSSMPGFTASQLDDMSTIAQSMVQSIQSLAAQGRTSPNKLQALNMAFASSMAEIAASEEGGGSLSTKTSSIASAMSNAFLQTTGVVNQPFINEITQLVSMFAQAGMNDVSAGNSLVPRGSQTIEENIKIFEEEEVEFISVPVPEFADSDPANIVHDFNKKLTAYLDLNLDKCYVIPLNTSIVMPPRNLLELLINIKAGTYLPQSYLIHEHMVITDRIENIDHLGFFIYRLCHDKETYKL
notes: also called NTwt-Bri2-BRICHOS
- binding result [4]: binds

B5: NTD40K/K65D-Bri2113-231 fusion protein (other)
chain: B4 chain with D45K, K70D
notes: also called NTD40K/K65D-Bri2-BRICHOS
- binding result [4]: binds

B6: NTD40K/K65D-β17 fusion protein (other)
chain: MGHHHHHHMSHTTPWTNPGLAENFMNSFMQGLSSMPGFTASQLDKMSTIAQSMVQSIQSLAAQGRTSPNDLQALNMAFASSMAEIAASEEGGGSLSTKTSSIASAMSNAFLQTTGVVNQPFINEITQLVSMFAQAGMNDVSAGNSLVPRGSMGEQKLISEEDLGMQISMDYEIKFHGDGDNFDLNLDDSGGDLQLQIRGPGGRVHVHIHSSSGKVDFHVNNDGGDVEVKMH
- binding result [5]: binds
